In US20190071490A1 (BETH ISRAEL DEACONESS MEDICAL CENTER, published 2019):
Numbering of substitutions follows the chain as printed. Names and notes keep the numbering of the source.

T1: rat α-CGRP (1-37) (rat, C-terminal amide; N-terminal biotin when captured on the SA chip)
T1 construct: also called rat α (1-37); α-rat
T1 peptide: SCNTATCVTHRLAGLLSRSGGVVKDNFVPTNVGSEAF

T2: human α-CGRP 1-37 (WT) (human, C-terminal amide; N-terminal biotin when captured on the SA chip; 125I-labelled in the radioligand assay)
T2 construct: also called α-human
T2 peptide: T1 peptide with S1A, N3D, D25N, E35K

B1: G1 variant M34 Fab (Fab, V domains shown)
VH: EVQLVESGGGLVQPGGSLRLSCAASGFTFSNYWISWVRQAPGKGLEWVAEIRSKSDNTATHYAEAVKGRFTISRDNAKNSLYLQMNSLRAEDTAVYYCTVYFDYGLAIQNYWGQGTLVTVSS
VL: EIVLTQSPATLSLSPGERATLSCKASKNVGTYVSWYQQKPGQAPRLLIYGASNRYLGIPARFSGSGSGTDFTLTISSLEPEDFAVYYCSQSYNYPYTFGQGTKLEIK
notes: Fab; constant domains as m1
B2: G1 variant M47 Fab (Fab, V domains shown)
VH: B1 VH with T58G
VL: B1 VL with G30T, G50A, L56T
notes: Fab; constant domains as m1
B3: G1 variant M40 Fab (Fab, V domains shown)
VH: B1 VH with N57L, T58S
VL: B1 VL with G30T, G50A, L56T
notes: Fab; constant domains as m1
B4: G1 variant M45 Fab (Fab, V domains shown)
VH: B1 VH with T58E, E64D
VL: B1 VL with G30T, G50A, L56T
notes: Fab; constant domains as m1
B5: G1 variant M35 Fab (Fab, V domains shown)
VH: B1 VH with N57S, T58S
VL: B1 VL
notes: Fab; constant domains as m1
B6: G1 variant M42 Fab (Fab, V domains shown)
VH: B1 VH with T58S, H61F
VL: B1 VL with G30T, G50A, L56T
notes: Fab; constant domains as m1
B7: G1 variant M37 Fab (Fab, V domains shown)
VH: B1 VH with K54E, N57G, T58S
VL: B1 VL with G30S
notes: Fab; constant domains as m1
B8: G1 variant M46 Fab (Fab, V domains shown)
VH: B1 VH with T58E, H61F
VL: B1 VL with G30T, G50A, L56T
notes: Fab; constant domains as m1
B9: G1 variant M36 Fab (Fab, V domains shown)
VH: B1 VH with K54E, N57A, T58S
VL: B1 VL with G30R
notes: Fab; constant domains as m1
B10: G1 variant M64 Fab (Fab, V domains shown)
VH: B1 VH with T58V
VL: B1 VL with G50A
notes: Fab; constant domains as m1
B11: G1 variant M50 Fab (Fab, V domains shown)
VH: B1 VH with N57R, T58S
VL: B1 VL with G30T, G50A, L56T
notes: Fab; constant domains as m1
B12: G1 variant M57 Fab (Fab, V domains shown)
VH: B1 VH with T58E
VL: B1 VL with G30D, L56S
notes: Fab; constant domains as m1
B13: G1 variant M41 Fab (Fab, V domains shown)
VH: B1 VH with T58S, E64D
VL: B1 VL with G30T, G50A, L56T
notes: Fab; constant domains as m1
B14: G1 variant M54 Fab (Fab, V domains shown)
VH: B1 VH with T58P
VL: B1 VL with G30A, G50A
notes: Fab; constant domains as m1
B15: G1 variant M43 Fab (Fab, V domains shown)
VH: B1 VH with T58C
VL: B1 VL with G30T, G50A, L56T
notes: Fab; constant domains as m1
B16: G1 variant M61 Fab (Fab, V domains shown)
VH: B1 VH with K54Q, T58S, H61F
VL: B1 VL with A51H
notes: Fab; constant domains as m1
B17: G1 variant M44 Fab (Fab, V domains shown)
VH: B1 VH with T58E
VL: B1 VL with G30T, G50A, L56T
notes: Fab; constant domains as m1
B18: G1 variant M58 Fab (Fab, V domains shown)
VH: B1 VH with T58I, H61F
VL: B1 VL with G30D, L56S
notes: Fab; constant domains as m1
B19: G1 variant M51 Fab (Fab, V domains shown)
VH: B1 VH with N57G, T58S
VL: B1 VL with G30T, L56I
notes: Fab; constant domains as m1; printed L561 read as L56I
B20: G1 variant M65 Fab (Fab, V domains shown)
VH: B1 VH with N57C, T58S
VL: B1 VL with G50A, L56I
notes: Fab; constant domains as m1
B21: G1 variant M38 Fab (Fab, V domains shown)
VH: B1 VH with K54E, N57A, T58S
VL: B1 VL with G30W
notes: Fab; constant domains as m1
B22: G1 variant M53 Fab (Fab, V domains shown)
VH: B1 VH with T58G
VL: B1 VL with G30T, L56I
notes: as for B19
B23: G1 variant M39 Fab (Fab, V domains shown)
VH: B1 VH with K54E, T58Y
VL: B1 VL with G30T, G50A, L56T
notes: Fab; constant domains as m1
B24: G1 variant M56 Fab (Fab, V domains shown)
VH: B1 VH with T58S, H61F
VL: B1 VL with G30D, L56S
notes: Fab; constant domains as m1
B25: G1 variant M59 Fab (Fab, V domains shown)
VH: B1 VH with T58N, H61F
VL: B1 VL with G30D, L56S
notes: Fab; constant domains as m1
B26: G1 variant M52 Fab (Fab, V domains shown)
VH: B1 VH with T58A
VL: B1 VL with G30T, L56I
notes: as for B19
B27: G1 variant M63 Fab (Fab, V domains shown)
VH: B1 VH
VL: B1 VL with G50A
notes: Fab; constant domains as m1
B28: G1 variant M62 Fab (Fab, V domains shown)
VH: B1 VH with T58E
VL: B1 VL with A51H, L56T
notes: Fab; constant domains as m1
B29: G1 variant M55 Fab (Fab, V domains shown)
VH: B1 VH with T58E, E64D
VL: B1 VL with G30A, L56S
notes: Fab; constant domains as m1
B30: G1 variant M48 Fab (Fab, V domains shown)
VH: B1 VH with T58L
VL: B1 VL with G30T, G50A, L56T
notes: Fab; constant domains as m1
B31: G1 variant M60 Fab (Fab, V domains shown)
VH: B1 VH with T58R, H61F
VL: B1 VL with G30D, L56S
notes: Fab; constant domains as m1
B32: G1 variant M49 Fab (Fab, V domains shown)
VH: B1 VH with T58Y, H61F
VL: B1 VL with G30T, G50A, L56T
notes: Fab; constant domains as m1

Key:
rat α-CGRP (1-37) = biological target: T1, rat α-CGRP (1-37); assay: Biacore, 37°C, Fab over CGRP on SA chip
Procedure: (§1) Biacore assay for affinity determination. […] All Biacore assays were conducted in HBS-EP running buffer (10 mM HEPES pH 7.4, 150 mM NaCl, 3 mM EDTA, 0.005% v/v polysorbate P20). CGRP surfaces were prepared by diluting the N-biotinylated CGRP to a concentration of less than 0.001 mg/mL into HBS-EP buffer and injecting it across the SA sensor chip using variable contact times. […] Samples were typically injected for 1 minute at 100 μL/min and dissociation times of at least 10 minutes were allowed. […] An entire titration series (typically generated in duplicate) was fit globally to a 1:1 Langmuir binding model using the BIAevaluation program. This returned a unique pair of association and dissociation kinetic rate constants (respectively, kₒₙ and koff) for each binding interaction, whose ratio gave the equilibrium dissociation constant (KD=koff/kₒₙ). […]

human α-CGRP 1-37 (WT) = biological target: T2, human α-CGRP 1-37 (WT); assay: Biacore, 37°C, Fab over CGRP on SA chip
Procedure: as §1

Binder	Kd (rat α-CGRP (1-37)) [nM]	koff (rat α-CGRP (1-37)) [s⁻¹]	Kd (human α-CGRP 1-37 (WT)) [nM]	koff (human α-CGRP 1-37 (WT)) [s⁻¹]	binding result (rat α-CGRP (1-37))
B1	121	0.00217	4.04	0.000646	–
B2	457	0.00823	2.08	0.000332	–
B3	20000	0.36	8	0.00128	–
B4	259	0.00558	1.85	0.000211	–
B5	222	0.00399	2.12	0.000339	–
B6	418	0.00752	2.61	0.000417	–
B7	80.6	0.00145	1.41	0.000226	–
B8	163	0.00294	3.37	0.000539	–
B9	266	0.00479	1.49	0.000239	–
B10	1300	0.0234	8.25	0.00132	–
B11	294	0.0053	2.54	0.000406	–
B12	1200	0.0104	3.08	0.000322	–
B13	252	0.00453	1.31	0.00021	–
B14	120	0.00216	11.2	0.00179	–
B15	252	0.00453	1.64	0.000263	–
B16	289	0.00521	2.87	0.000459	–

Binder	Kd (rat α-CGRP (1-37)) [nM]	koff (rat α-CGRP (1-37)) [s⁻¹]	Kd (human α-CGRP 1-37 (WT)) [nM]	koff (human α-CGRP 1-37 (WT)) [s⁻¹]	binding result (rat α-CGRP (1-37))
B17	443	0.00613	2.05	0.00021	–
B18	–	–	12.2	0.00195	no binding
B19	65.6	0.00118	0.82	0.000131	–
B20	226	0.00407	5.02	0.000803	–
B21	284	0.00511	1.36	0.000218	–
B22	106	0.00191	2.34	0.000374	–
B23	553	0.00995	2.66	0.000425	–
B24	519	0.00935	2.99	0.000479	–
B25	683	0.0123	3.28	0.000524	–
B26	127	0.00229	1.76	0.000281	–
B27	147	0.00265	9.38	0.0015	–
B28	242	0.00575	5.86	0.000557	–
B29	325	0.00585	2.99	0.000478	–
B30	1910	0.0343	5.26	0.000842	–
B31	1510	0.0272	5.69	0.000911	–
B32	822	0.0148	3.72	0.000595	–
